These results are taken from US5643731A, “Use of pairs of leucine zipper peptides in immunoassay methods” (Behringwerke Aktiengesellschaft, priority 1990, dated 1997).

The target of assay [1] is T1, Jun-anti-AFP antibody binding to the Fos-coated microtiter plate (FBJ murine osteosarcoma virus, UniProt P01102).
T1 construct: host or cells: synthetic peptides; conjugate made in house
In words: Inhibition of the Jun-anti-AFP antibody binding to the Fos-coated microtiter plate by addition of free peptide. The procedure:
100 μl portions of a Jun peptide-anti-AFP antibody conjugate (anti-AFP antibodies from sheep) prepared as in Example 2, Step 3 or 3a are pipetted into the wells of microtiter plates which were coated with Fos peptide as in Example 2, Step 1, and incubated at 37° C. for 2h. After the wells had been washed three times with washing buffer (OSEW, Behringwerke), 20 μl portions of standard or sample and 100 μl of a buffer (OSND, Behringwerke) with the addition of peroxidase-conjugated anti-AFP antibodies from sheep were introduced. The two-hour incubation at 37° C. is again stopped with a washing step (see above), and the substrate/chromogen reaction is carried out as in Example 2, Step 4.
The Jun/Fos AFP assay described hereinbefore was preceded by an incubation step with 100 μl in each case of a Jun or Fos peptide-containing buffer solution (buffer=OSND) per well at 37° C. for one hour. After 3 washes, the subsequent assay procedure was as specified above.

Assay [2] deals with c-Jun "leucine zipper peptide" (SEQ ID No1) (Homo sapiens, UniProt P05412). The settings on record: cited from earlier work.

For the sequence “LTDTLQAETDQLEDKKSALQTEIANLLKEKEKLEFILAAY [Fos, synthetic peptide comprising positions 162 to 201, the leucine zipper of the v-Fos protein]”, the “Measured signal (extinction 450 nm) Standard S0 (0 IU AFP/ml)” value came out at 0.010 in assay [1] (free peptide 5 μg/ml), 0.011 in assay [1] (free peptide 50 μg/ml) and 0.015 in assay [1] (free peptide 500 μg/ml). Also, the results for the “Measured signal (extinction 450 nm) Standard S5 (300 IU AFP/ml)” value in assay [1] (free peptide 5 μg/ml), in assay [1] (free peptide 50 μg/ml) and in assay [1] (free peptide 500 μg/ml) were 3.416, 3.572 and 3.694, respectively. Also, the “heterodimeric complexes with the c-Jun "leucine zipper peptide"” value in assay [2] is “forms very stable heterodimeric complexes”.
Consider “RIARLEEKVKTLKAQNSELASTANMLREQVAQLKQKVMNY [Jun, synthetic peptide comprising amino-acid positions 285 to 324, the so-called leucine zipper of the c-Jun protein]”, for which, in assay [1] (addition of free peptide), the “inhibition of the binding of Jun-anti-AFP antibody to the Fos-coated solid phase” value is recorded as “possible to inhibit the binding”. Further, the results for the “Measured signal (extinction 450 nm) Standard S0 (0 IU AFP/ml)” value in assay [1] (free peptide 5 μg/ml), in assay [1] (free peptide 50 μg/ml) and in assay [1] (free peptide 500 μg/ml) were 0.015, 0.011 and 0.013, respectively. Besides, the “Measured signal (extinction 450 nm) Standard S5 (300 IU AFP/ml)” value in assay [1] (free peptide 5 μg/ml) turned out to be 3.486; in assay [1] (free peptide 50 μg/ml) it was 2.857; in assay [1] (free peptide 500 μg/ml) it was 1.371.
